Results from the Human Domainome abundance scans (Beltran et al. 2025).

B1: Integrator complex subunit 12, residues 155 to 213; numbered along this chain, Q96CB8 (parent)
chain: AMEMGLACVVCRQMMVASGNQLVECQECHNLYHRDCHKPQVTDKEANDPRLVWYCARCT

Variants of: B1
Test: abundance fitness (aPCA) (normalised: wild type 0, dead -1); higher = more abundant; growth selection in yeast, the domain comes from the species named
Details: Homo sapiens

Abundance fitness: each site, then its substitutions
E24: A -0.123 | Y -0.493 | L -0.376 | T -0.157 | S -0.236 | G -0.3 | M -0.397 | F -0.459 | V -0.262 | W -0.563 | H -0.226 | Q -0.088 | C -0.219 | D -0.117 | I -0.387 | N -0.308 | K -0.205 | R -0.094
Q21: Y -0.117 | T 0.084 | S 0.019 | V -0.068 | W -0.223
C28: A -0.616 | I -0.954 | R -0.816 | G -0.519 | M -0.835 | Q -0.801 | P -0.787 | K -0.648 | H -0.664 | S -0.68 | W -0.891 | D -0.576 | T -0.749 | N -0.561 | E -0.845 | Y -0.714 | V -0.845 | L -0.773 | F -0.818
E27: T -0.036 | Q -0.096 | Y -0.208 | C -0.107 | K 0.087 | L -0.105 | N -0.009 | P -0.67 | D -0.049 | A -0.044 | M -0.103 | V -0.184 | G -0.043 | S -0.007 | R -0.001 | F -0.143
H29: L -0.275 | K 0.084 | P -0.612 | R -0.053 | M -0.097 | D -0.26 | F -0.19 | T -0.216 | C -0.185 | V -0.438 | W -0.426 | Y -0.182 | G -0.016 | N -0.117
V23: P -0.518 | N -0.228 | E -0.251 | H -0.075 | A -0.179 | T -0.158 | C -0.103 | I 0.001 | Q -0.098 | G -0.528 | W -0.045 | Y -0.046 | K -0.164 | D -0.296 | F -0.021 | L 0.006
L22: H -0.001 | V -0.003 | F 0.014 | Y 0.039 | P -0.115 | W -0.113 | Q -0.297 | I -0.036 | E -0.353 | G 0.013 | T -0.084 | R -0.153 | K 0.01 | N -0.042 | C -0.03 | M -0.006 | D -0.292
L31: K 0.103 | A 0.04 | G -0.048 | F 0.075 | E -0.358 | H 0.057 | N 0.027 | I 0.01 | C 0.047 | M -0.008
Q26: W -0.117 | F -0.062 | Y -0.017 | P -0.014 | D -0.147 | S -0.045 | A 0.007 | H -0.012 | V -0.059 | N 0.013 | M -0.184 | C -0.038 | G 0.039 | T -0.052 | R -0.008 | K -0.039 | L -0.111 | I -0.155 | E -0.013
C25: M -0.792 | R -0.714 | T -0.622 | Q -0.458 | G -0.66 | V -0.819 | E -0.824 | P -0.869 | D -0.655 | N -0.773 | H -0.72 | L -0.866 | S -0.662 | K -0.915 | W -0.959 | I -0.906
N30: D 0.079 | Y -0.081 | L -0.002 | R -0.01 | I -0.231 | C 0.013 | T -0.105 | P -0.706 | K 0.048 | S -0.071 | H -0.049 | Q 0.028 | F -0.179 | V -0.129 | E -0.103 | W -0.091 | G 0.03
